Legend:
[1] = molecular target: T1, human CD73 (SEQ ID NO: 70) (Homo sapiens, UniProt P21589); experiment: SPR (Biacore 8K) binding affinity and kinetics to human CD73
T1 construct: purchased BPS Bioscience
T1 sequence (P21589 27-549): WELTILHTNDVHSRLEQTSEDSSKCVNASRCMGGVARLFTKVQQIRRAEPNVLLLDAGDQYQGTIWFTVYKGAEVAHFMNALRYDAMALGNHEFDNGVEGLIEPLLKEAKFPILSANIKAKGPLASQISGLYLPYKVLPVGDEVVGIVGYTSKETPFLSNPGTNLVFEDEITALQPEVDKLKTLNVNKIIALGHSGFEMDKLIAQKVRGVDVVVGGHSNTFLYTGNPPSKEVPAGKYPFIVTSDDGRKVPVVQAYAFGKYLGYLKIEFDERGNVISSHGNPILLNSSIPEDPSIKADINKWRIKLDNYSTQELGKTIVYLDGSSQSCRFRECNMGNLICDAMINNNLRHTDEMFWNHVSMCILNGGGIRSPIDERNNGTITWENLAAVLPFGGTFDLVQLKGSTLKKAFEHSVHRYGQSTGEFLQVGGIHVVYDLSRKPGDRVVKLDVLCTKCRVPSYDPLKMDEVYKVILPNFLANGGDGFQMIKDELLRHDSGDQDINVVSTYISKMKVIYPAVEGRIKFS
Protocol: (§1) The SPR running buffer (10 mM HEPES, 150 mM NaCl, 3 mM EDTA and 0.05% v/v Surfactant P20, pH 7.4) was prepared from 10×HBS-EP Buffer (GE Healthcare). Anti-human Fc antibodies (GE Healthcare) were immobilized via amine coupling on all sixteen flow cells of an S series sensor chip CM5 (GE Healthcare). The immobilization levels were ˜9000 RU for all flow cells. The desired capturing level of anti-CD73 antibody was achieved by flowing appropriate concentration of anti-CD73 antibody through the active flow cell of each channel. The non-cleavable ADP analogue APCP (adenosine-5′-(α,β-methylene) diphosphate) with the presence of Zn^2+ can be used to shift the CD73 conformational equilibrium from open towards closed. Therefore, recombinant CD73 was incubated with SPR running buffer in the presence of 100 μM APCP and 10 μM ZnCl2 (closed SPR running buffer) to study the binding of anti-CD73 antibody to the CD73 in the closed conformation. To achieve this, the ABA injection feature in Biacore 8K was used. For open conformation, the ABA injection sequence started with 60 seconds injection of running buffer. Then, CD73 3-fold serial dilution concentration series prepared from CD73 stock (BPS Bioscience) and running buffer were injected for 180 seconds immediately followed by running buffer for 240 seconds. For closed conformation, the normal SPR running buffer was replaced by closed SPR running buffer. Surface was regenerated with 30 seconds injection of 3 M MgCl2. […] Binding affinities and kinetic association and dissociation rate constants to human, cynomolgus, and mouse CD73 in either open or closed conformations are shown in Table 8 below. The results in Table 8 ensure cynomolgus pharmacokinetic data will reflect human pharmacokinetic data.
(§2) Binding affinities and kinetic association and dissociation rate constants to human, cynomolgus, and mouse CD73 in either open or closed conformations are shown in Table 9 below.

[2] = test system: cynomolgus CD73 (SEQ ID NO: 72); experiment: SPR (Biacore 8K) binding affinity and kinetics to cynomolgus CD73
Sequence of cynomolgus CD73 (SEQ ID NO: 72) (as listed by the source): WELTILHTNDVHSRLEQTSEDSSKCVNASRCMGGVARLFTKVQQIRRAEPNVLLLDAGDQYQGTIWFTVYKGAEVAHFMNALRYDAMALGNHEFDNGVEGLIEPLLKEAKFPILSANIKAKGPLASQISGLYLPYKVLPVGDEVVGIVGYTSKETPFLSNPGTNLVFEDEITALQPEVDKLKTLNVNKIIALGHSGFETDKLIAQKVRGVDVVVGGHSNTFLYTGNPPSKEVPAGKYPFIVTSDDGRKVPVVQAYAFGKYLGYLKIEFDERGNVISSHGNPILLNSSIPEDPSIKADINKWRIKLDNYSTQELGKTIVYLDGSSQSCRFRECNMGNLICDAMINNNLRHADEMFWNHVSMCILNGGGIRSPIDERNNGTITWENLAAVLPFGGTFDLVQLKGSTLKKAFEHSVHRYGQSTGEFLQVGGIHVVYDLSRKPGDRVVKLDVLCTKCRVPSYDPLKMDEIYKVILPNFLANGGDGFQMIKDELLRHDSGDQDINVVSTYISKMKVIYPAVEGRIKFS
Protocol: as §1, §2

[3] = molecular target: T2, mouse CD73 (SEQ ID NO: 71) (Mus musculus, UniProt Q61503); experiment: SPR (Biacore 8K) binding affinity and kinetics to mouse CD73
T2 construct: purchased BPS Bioscience
T2 sequence (Q61503 29-551): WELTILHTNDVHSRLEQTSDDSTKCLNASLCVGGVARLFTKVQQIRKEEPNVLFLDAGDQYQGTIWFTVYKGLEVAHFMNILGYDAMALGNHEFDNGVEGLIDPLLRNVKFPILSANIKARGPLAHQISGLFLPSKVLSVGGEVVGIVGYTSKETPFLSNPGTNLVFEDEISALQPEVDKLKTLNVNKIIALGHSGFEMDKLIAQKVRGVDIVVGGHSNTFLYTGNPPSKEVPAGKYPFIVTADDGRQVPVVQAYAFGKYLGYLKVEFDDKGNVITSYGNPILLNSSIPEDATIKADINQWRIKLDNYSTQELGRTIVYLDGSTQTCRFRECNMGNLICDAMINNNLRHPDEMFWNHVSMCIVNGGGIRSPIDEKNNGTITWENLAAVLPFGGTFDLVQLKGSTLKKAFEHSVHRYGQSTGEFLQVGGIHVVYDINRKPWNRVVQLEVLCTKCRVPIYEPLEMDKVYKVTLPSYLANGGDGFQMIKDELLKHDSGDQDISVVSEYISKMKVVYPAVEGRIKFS
Protocol: The SPR running buffer (10 mM HEPES, 150 mM NaCl, 3 mM EDTA and 0.05% v/v Surfactant P20, pH 7.4) was prepared from 10×HBS-EP Buffer (GE Healthcare). Anti-human Fc antibodies (GE Healthcare) were immobilized via amine coupling on all sixteen flow cells of an S series sensor chip CM5 (GE Healthcare). The immobilization levels were ˜9000 RU for all flow cells. The desired capturing level of anti-CD73 antibody was achieved by flowing appropriate concentration of anti-CD73 antibody through the active flow cell of each channel. The non-cleavable ADP analogue APCP (adenosine-5′-(α,β-methylene) diphosphate) with the presence of Zn^2+ can be used to shift the CD73 conformational equilibrium from open towards closed. Therefore, recombinant CD73 was incubated with SPR running buffer in the presence of 100 μM APCP and 10 μM ZnCl2 (closed SPR running buffer) to study the binding of anti-CD73 antibody to the CD73 in the closed conformation. To achieve this, the ABA injection feature in Biacore 8K was used. For open conformation, the ABA injection sequence started with 60 seconds injection of running buffer. Then, CD73 3-fold serial dilution concentration series prepared from CD73 stock (BPS Bioscience) and running buffer were injected for 180 seconds immediately followed by running buffer for 240 seconds. […]

[4] = molecular target: T3, recombinant human CD73 (rhuCD73) (SEQ ID NO:70) (Homo sapiens, UniProt P21589); experiment: Soluble CD73 inhibition (AMP-Glo); assay type: biochemical; settings: 0.008 μg/mL rhuCD73, 100 μM AMP
T3 sequence (P21589 27-549): T1 sequence (P21589 27-549)
Protocol: To measure the ability of the CD73 antibodies to inhibit CD73 activity of recombinant protein, recombinant human CD73 (rhuCD73) (SEQ ID NO:70) was added to 96-well plates at a final concentration of 0.008 μg/mL with the indicated concentration of antibodies (FIG. 4) or adenosine 5′-[α,β-methylene]diphosphate (APCP) and incubated at 37° C. 5% CO2 for 30 minutes. After the 30 minute incubation, AMP was added to a final concentration of 100 μM and the reactions were incubated an additional 3 hours at 37° C. 5% CO2. 25 μL of supernatant was transferred into new 96-well plates. The AMP-Glo Assay was used according to the manufacturer's instructions. RLU is a directly correlated with the AMP concentration in this assay. Results are depicted in FIG. 4.
Results are depicted in FIG. 9.

[5] = molecular target: T4, CD73 on the cell surface of MDA-MB-231 cells (Homo sapiens, UniProt P21589); experiment: CD73 cell surface levels after 24 hour antibody treatment; assay type: cell-based; settings: 10 μg/mL antibody
T4 construct: endogenous in cells; host or cells: MDA-MB-231
T4 sequence (P21589 27-549): T1 sequence (P21589 27-549)
Protocol: Indicated antibodies were added at a final concentration of 10 μg/mL and plates were incubated at 37° C. 5% CO2 for 24 hours. Cells were recovered using Versene and transferred to new 96-well plates. Cells were washed and stained for 30 minutes on ice with 10 μg/mL of non-competing antibody directly conjugated to Dy650. Cells were washed and analyzed by flow cytometry. CD73 cell surface receptor density was determined by Antibody Binding Capacity (ABC) using Quantum Simply Cellular beads.

human CD73 = molecular target: T5, human CD73 (Homo sapiens, UniProt P21589); experiment: Epitope mapping by hydrogen-deuterium exchange mass spectrometry (HDX); settings: Fab in complex with CD73
T5 sequence (P21589 27-549 limits assumed): T1 sequence (P21589 27-549)
Protocol: To map the epitope of CL25, Hydrogen-deuterium exchange mass spectrometry (HDX) was performed. CD73 was incubated in deuterium oxide either alone or in complex with CL25 Fab. The deuterium exchange was carried out at 20° C. for 0 seconds, 60 seconds, 600 seconds, or 3600 seconds. The exchange reaction was quenched by low pH and the proteins were digested with pepsin/protease VIII. The deuterium levels at the identified peptides were monitored from the mass shift on LC-MS. The deuterium buildup curves over exchange time for all the peptides were plotted vs time. Peptides with significant reduction in deuterium uptakes upon binding to Fab were assigned as the epitopes for each antibody.

[6] = human CD73, closed conformation (100 μM APCP, 10 μM ZnCl2)
[7] = human CD73, open conformation, 25° C.
[8] = cynomolgus CD73, closed conformation

B1: CL25: chimeric anti-human CD73 monoclonal antibody, murine VH SEQ ID NO:26 and VL SEQ ID NO:27 with human IgG1 Fc (antibody, V domains shown)
VH: QVQLQQSGAELARPGASVKLSCRASGYTFTSYGLSWVKQRTGQGLEWIGEIYPGSGNTYYNEKFKGKATLTADKSSSTAYMELRSLTSEDSAVYFCARYDYLGSSYGFDYWGQGTTLTVSS
VL: DIVMTQSHKFMSTSVGDRVSITCKASQDVSTAVAWYQQKPGQSPKLLIYSASYRYNGVPDRFTGSGSGTDFTFTISSVQAEDLAVYYCQQHYNTPYTFGGGTKLEIK
modifications: human IgG1 Fc constant regions without entry
- ka [1, 6]: 903000 M⁻¹ s⁻¹
- kd [1, 6]: 0.000344 s⁻¹
- ka [1, 7]: >1e+06 M⁻¹ s⁻¹
- kd [1, 7]: 0.000394 s⁻¹
- ka [2, 8]: 936000 M⁻¹ s⁻¹
- kd [2, 8]: 0.000495 s⁻¹
- kd ([2]; cynomolgus CD73, open conformation): 0.000658 s⁻¹
- KD ([3]; murine CD73, closed conformation (merged ka/kd/KD cell)): No Binding
- KD ([3]; murine CD73, open conformation (merged ka/kd/KD cell where no binding)): No Binding
- hook-effect in inhibition of recombinant CD73 [4]: no hook-effect
- inhibition of recombinant CD73 [4]: high potency
- level of CD73 on the cell surface [5]: decreased the levels of cell surface CD73
- epitope determined by HDX-MS (human CD73): TKVQQIRRAEPNVL

Source: patent US12060433B2, “CD73 inhibitor and A2A/A2B adenosine receptor inhibitor combination therapy” (Incyte Corporation, priority 2020, dated 2024)
